Test results taken from paper PMC10998907 (2024).

What was measured:
Experiment in all cases: BLI
[1] = biological target: T1, NiV-RBP global head domain, His-tagged (Nipah virus, UniProt Q9IH62, biotinylated for BLI only (EZ-link Sulfo-NHS-LC-Biotin))
T1 chain: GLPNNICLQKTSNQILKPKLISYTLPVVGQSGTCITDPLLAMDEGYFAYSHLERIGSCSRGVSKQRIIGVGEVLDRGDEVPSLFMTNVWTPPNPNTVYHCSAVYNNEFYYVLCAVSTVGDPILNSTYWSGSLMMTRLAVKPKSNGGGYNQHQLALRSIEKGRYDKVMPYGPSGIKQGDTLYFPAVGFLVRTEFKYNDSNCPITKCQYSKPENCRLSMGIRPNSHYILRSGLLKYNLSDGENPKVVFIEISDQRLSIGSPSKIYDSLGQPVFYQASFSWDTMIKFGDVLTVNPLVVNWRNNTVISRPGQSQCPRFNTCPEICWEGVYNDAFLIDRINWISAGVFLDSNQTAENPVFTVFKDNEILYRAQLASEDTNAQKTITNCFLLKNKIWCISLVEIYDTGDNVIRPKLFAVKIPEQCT

[2] = biological target: T2, HeV-RBP global head domain, His-tagged (Hendra virus, UniProt O89343 183-602, biotinylated for BLI only (EZ-link Sulfo-NHS-LC-Biotin))
T2 sequence (O89343 183-602): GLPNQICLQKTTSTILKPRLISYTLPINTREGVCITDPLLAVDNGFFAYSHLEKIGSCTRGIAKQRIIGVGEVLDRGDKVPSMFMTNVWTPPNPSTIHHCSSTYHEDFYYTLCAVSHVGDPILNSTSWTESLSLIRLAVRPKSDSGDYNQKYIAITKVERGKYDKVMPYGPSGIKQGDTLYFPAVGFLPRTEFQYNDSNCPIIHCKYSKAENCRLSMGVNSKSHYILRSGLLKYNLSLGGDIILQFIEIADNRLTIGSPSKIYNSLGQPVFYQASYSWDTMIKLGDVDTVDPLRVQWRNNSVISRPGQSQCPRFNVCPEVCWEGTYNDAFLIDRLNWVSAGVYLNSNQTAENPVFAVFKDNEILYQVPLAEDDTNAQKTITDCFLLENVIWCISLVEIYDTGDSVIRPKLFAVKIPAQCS

[3] = biological target: T1, NiV-RBP global head domain, His-tagged
[4] = biological target: T2, HeV-RBP global head domain, His-tagged; remark: listed apart in the source

B1: 41-6 Fab fragment (Fab, V domains shown)
VH: EVQLVQSGGGLVQPGGSLRLSCAASGFTVSSNYMSWVRQAPGKGLEWVSAISGSGGSTYYADSVKGRFTISRDNSKNTLYLQMNSLRAEDTAVYYCARDREDIVVVPAPRGYYYYYYMDVWGQGTTVTVSS
VL: QSVVTQPPSVSAAPGQKVTISCSGSSSNIGTNHLSWYQQVPGTAPKLLIYDNNKRPSGIPDRFSGSKSGTSASLAISGLQSEDEADYYCATWDDSLHAWVFGGGTKLTVL
koff [1]: 0.0002 s⁻¹ | koff [2]: 0.00018 s⁻¹ | Kd [3]: 3.6 nM | Kd [4]: 5.4 nM
